Results: a protein production outcome set (Wang et al. 2014)

Test: label from the status in PepcDB records
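Further: failed if final PepcDB status was selected cloned or expressed and not failed if soluble or beyond.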

Q: For “MSRPPVFPPPQFPPPRPRPFQRTPPAIFPPILGLLALGLGLRRAAEIWGLPAGLAEAVLGATTGLGAFAVAAYAAKVAQRPGVVIEDLRVLPGRAGLAALVLGLLVLAAVLVPYGPAAARAVLVAGLGLQTILAVTVAALLLSGPKEGRVVTPAFHLHFVGFIIGGLTAAPVGWPGLGTVLLAVCAPVAAAIWIASLVQFLRRVPPPPLRPLLAIHLAPAALLGLVAGQQELPLVAQLCAAAGGVLLLAFLASARWLLAGGFSPLWGALTFPLAAYAGLLLVVWPQAGAVLLAAAALVIPPIAAKILQEWAKGRLAVRTNAAQA”, which protein production is on record?
A: failed

Q: For “MSRQQARGALGRAWWLQLALALLPLILVEFFLGELQPLPHGLAMPLFIAALLSMFVNLPLFGAYKRGLIATQKALDTAEEAAAWTRLAQVRRKALFGASLPAWIGVPGVFAGLNGVALILLGVTSLVLFWLYRIPRQLG”, which protein production is on record?
A: failed

Q: For “MSRRAPMFKPLPITLQRGALRLEPLVEADIPELVSLAEANREALQYMDGPTRPDWYRQSLAEQREGRALPLAVRLGVQLVGTTRFAEFLPALPACEIGWTWLDQAQHGSGLNRMIKYLMLKHAFDNLRMVRVQLSTAASNLRAQGAIDKLGAQREGVLRNHRRLAGGRLDDTFVYSITDHEWPQVKAALEASFTG”, which protein production is on record?
A: not failed

Q: With “MSRRSNRTINLPAPYLKRIWLDPSQVHDREAYPFCLPIFPDDFELSFDAAITIIVGENGTGKSTILEGIAALAGYDDAGGGKGYMPVDHSDAREKMGGQLSKALRASWLPKITNGWFFRAESFFSVARYLDKAARDAGQVGPDFLSHSHGEGFLRFFEERCQRQGIFIFDEPESALSPARQIEFLKLLRRMDDSRICQVIMATHSPMLMAYPNAKLLRLGKYGLEPVTVEETDHYRLMREFCDDPRGFVEATLAELEHHHHHH” as the sequence, how does the protein production read?
A: not failed

Q: With “MSRSGQPPDLKKYMDKKLQIKLNANRMVVGTLRGFDQFMNLVVDNTVEVNGDDKTDIGMVVIRGNSIVTVEALEPVGRS” as the sequence, how does the protein production read?
A: failed

Q: Which protein production does the source give for “MSRSLGIPVKLLHEASGHIVTVELKSGELYRGSMIECEDNWNCQLEDITYTAKDGKVSQLEHVFIRGSKVRFMVIPDILKHAPMFKRLDARIKGKSSSLGVGRGRGAMRGKPAAGPGRGTGGRGAVPPVRR” here?
A: failed

Q: For “MSRSVLQPSQQKLAEKLTILNDRGVGMLTRLYNIKKACGDPKAKPSYLIDKNLESAVKFIVRKFPAVE”, which protein production is on record?
A: failed

Q: With “MSRTVMCRKYHEELPGLDRPPYPGAKGEDIYNNVSRKAWDEWQKHQTMLINERRLNMMNAEDRKFLQQEMDKFLSGEDYAKADGYVPPSA” as the sequence, how does the protein production read?
A: not failed

Q: Which protein production does the source give for “MSRVSLPHDAKAGPTKPEVRAVLASKLALTGSDHFAEVGSCTGAVTITAARRAGRVTALERKGNRLDVTRKNLAANDVDADVELREAEAPEGLPDDADVLFLGGSRNYEAILDHAVETGVDRIVMNVSRLEVAGAATEAFRERDILEEVVQFQVSHGYELAGATSFNSENPVYMLVGSASEDVAADGGSPTETEATDGGQR” here?
A: failed

Q: Which protein production does the source give for “MSSAIRKAAKGGQCTPNIAGVCNDNPETVVLCRFPGETHGAGLKSGGLGAGFGCGCRRGAIDGRGAGLSREDKEFYMRRSQLRTIRRLEALGVVGVKGRLK” here?
A: failed

Q: Which protein production does the source give for “MSSEEDYFDELEYDLADEVNEEKEDIQTKKLTTVNCQTEKFNPFEILPESIELFRTLALISPDRLSLSETAQILPKIVDLKRILQQQEIDFIKLLPFFNEIIPLIKSNIKLMHNFLISLYSRRFPELSSLIPSPLQYSKVISILENENYSKNESDELFFHLENKAKLTREQILVLTMSMKTSFKNKEPLDIKTRTQILEANSILENLWKLQEDIGQYIASKISIIAPNVCFLVGPEIAAQLIAHAGGVLEFSRIPSCNIASIGKNKHLSHELHTLESGVRQEGYLFASDMIQKFPVSVHKQMLRMLCAKVSLAARVDAGQKNGDRNTVLAHKWKAELSKKARKLSEAPSISETKALPIPEDQPKKKRAGRKFRKYKEKFRLSHVRQLQNRMEFGKQEQTVLDSYGEEVGLGMSNTSLQQAVGATSGSRRSAGNQAKLTKVMKHRISEANQQADEFLISLGHNTEQPNLSPEMVQMHKKQHTNPEEETNWFSGHG” here?
A: failed

Q: Which protein production does the source give for “MSSEGRNHNWDYAAIGTPEDFLASWSASRGNLRRFFEDHAAAPINDAAQRQAGEAAATQAVAAIYGMELNEFNAGVDAVAGAIESAGAIHVSIPDPDVPQDVGAAAFFDVDNTLIQGSSLIVFAQGLFRKKFFTIKEILPVVWKQVKFKLTGSENAEDVSRGREQALEFIKGRPVQELVDLCEEIVDQRMADKMWPGTKQLADMHIAAGHQVWLVSATPVQLAQILAQRLGFTGAIGTVAEAKDGVFTGRLVGDILHGPGKRHAVAALASIEQLDLTRCTAYSDSINDLPMLSMVGTAVAVNPDSKLRKEAETRGWDVRDFRSIRKATREYGIPALVTAAFSVAGWRLRRRWRKQ” here?
A: failed

Q: For “MSSEKERKKKIFFQRILTVVFLGTFFYSVYELGDIFMDYYENRKVMAEAQNIYEKSPMEEQSQDGEVRKQFKALQQINQEIVGWITMDDTQINYPIVQAKDNDYYLFRNYKGEDMRAGSIFMDYRNDVKSQNRNTILYGHRMKDGSMFGSLKKMLDEEFFMSHRKLYYDTLFEGYDLEVFSVYTTTTDFYYIETDFSSDTEYTSFLEKIQEKSLYKTDTTVTAGDQIVTLSTCDYALDPEAGRLVVHAKLVKRQ”, which protein production is on record?
A: not failed

Q: Which protein production does the source give for “MSSEMEPLLLAWSYFRRRKFQLCADLCTQMLEKSPYDQAAWILKARALTEMVYIDEIDVDQEGIAEMMLDENAIAQVPRPGTSLKLPGTNQTGGPSQAVRPITQAGRPITGFLRPSTQSGRPGTMEQAIRTPRTAYTARPITSSSGRFVRLGTASMLTSPDGPFINLSRLNLTKYSQKPKLAKALFEYIFHHENDVKTIHLEDVVLHLGIYPFLLRNKNHIEKNALDLAALSTEHSQYKDWWWKVQIGKCYYRLGMYREAEKQFKSALKQQEMVDTFLYLAKVYVSLDQPVTALNLFKQGLDKFPGEVTLLCGIARIYEEMNNMSSAAEYYKEVLKQDNTHVEAIACIGSNHFYSDQPEIALRFYRRLLQMGIYNGQLFNNLGLCCFYAQQYDMTLTSFERALSLAENEEEAADVWYNLGHVAVGIGDTNLAHQCFRLALVNNNNHAEAYNNLAVLEMRKGHVEQARALLQTASSLAPHMYEPHFNFATISDKIGDLQRSYVAAQKSEAAFPDHVDTQHLIKQLRQHFAML” here?
A: failed

Q: Which protein production does the source give for “MSSENDFVEFSSMFERIIQGRGDGLSRFLPVIVALAAREDDDDQGSTDQTTRRGDPLSPRFVMIGSRSGLDDFFSDGGKQGRSPALKSEVENMPRVVIGEDKEKYGGSCAICLDEWSKGDVAAEMPCKHKFHSKCVEEWLGRHATCPMCRYEMPVEEVEEEKKIGIWIGFSINAGDRRN” here?
A: failed

Q: For “MSSERDLVNFLGDFSMDVAKAVIAGGVATAIGSLASFACVSFGFPVILVGGAILLTGIVCTVVLNEIDAQCHLSEKLKYAIRDGLKRQQELDKWKRENMTPFMYVLNTPPVI”, which protein production is on record?
A: failed

Q: With “MSSEYKKGIFLALGAYILWGILPIYWRLIDEIGAFEILAFRIIFSVIFMIFVLIIGKNQRNAFFRDVNQLVSHPVQLIAIIVAGYVITVNWGTFIWAVSNGHVLQSSLGYYINPLVSIVLALIFLKERFNKFEWLAIIFALVGVLYMTIKIGEFPFISLLLAFSFGIYGLLKKIVHIDAISSITIECIVTAPAGLIYVIYLWQQQHITFGLNISSFWLLFSGAITAIPLILFSAGAKRIPLSLTGFIQYVGPTIMFILGIFVFKEPFNTDQLITFIFIWIGIVLYSISQYVQIKKNPVVK” as the sequence, how does the protein production read?
A: failed

Q: For “MSSHNMTEVLVGGAVLAAALTFGIYASQATGLSRGTGGYELAASFRSLEGVTVGTDVRLAGVKIGTVTGVDLNPESYRADTRFTVSEGIQIPDDSAAVISSEGLLGGNFLEIMPGGSAFYFEPGDVIDDTQGAVSLISLLVKFVAGDGSGELEHHHHHH”, which protein production is on record?
A: not failed

Q: With “MSSKMVKSSEIVGKLNLRAHQEGGFFAETFRDSSVFLSTSQLPPTFKVDRAVSTSIYFLLPSGSVSRLHRIPMAETWHFYLGEPLTVVELYDDGKLKFTCLGPDLFEGDQKPQYTVPPNVWFGSFPTKDVHFSQDGALLKAEARDSENHFSLVGCTCAPAFQFEDFELAKRSDLLSRFPQHESLITMLSYPE” as the sequence, how does the protein production read?
A: failed

Q: For “MSSKPLYTILTVFNPIFIYFTKRDNLHTLRFKKDRAIKISEELFPDELCERCGRCCILHAYKTEDGIKTIYCEHLDPETKLCKVYKDRFKHRCLTVMEGILAGVFPKDCPYVKNLKNYEEPWFYRHLRDLEHHHHHH”, which protein production is on record?
A: failed
